Test results from article PMC5718613.

Biological target: S. aureus flotillin (FloA), fused to T25 or T18 fragments of an adenylate cyclase (S. aureus)
Experiment: two-hybrid; bacterial two-hybrid in E. coli BTH101; FloA and T7SS membrane proteins fused C- and N-terminally with T18 and T25 fragments of adenylate cyclase; X-Gal plates (48 h, 30°C) and β-galactosidase activity in Miller Units; a 700 Miller Unit threshold defines positive and negative signals

Sequence of S. aureus flotillin (FloA), fused to T25 or T18 fragments of an adenylate cyclase (S. aureus) (A6QHB6 whole entry, the tested form may be a part): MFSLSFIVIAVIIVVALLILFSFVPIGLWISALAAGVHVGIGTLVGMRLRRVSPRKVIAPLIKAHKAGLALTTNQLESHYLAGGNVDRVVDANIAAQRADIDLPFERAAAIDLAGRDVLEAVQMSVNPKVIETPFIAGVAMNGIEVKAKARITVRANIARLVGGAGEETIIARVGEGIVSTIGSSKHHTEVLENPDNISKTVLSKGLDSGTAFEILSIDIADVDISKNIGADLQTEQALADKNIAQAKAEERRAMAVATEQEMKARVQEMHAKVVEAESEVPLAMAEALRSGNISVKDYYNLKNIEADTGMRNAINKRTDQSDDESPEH

With “EssB, fused to T25 or T18 fragments of an adenylate cyclase (from UniProt Q2G185 1-444) (natural protein)” the β-galactosidase activity (two-hybrid signal) was greater than 2000 Miller Units.
